Source: US11883498B2, “Luteinizing hormone-releasing hormone receptor (LHRH-R) conjugates and uses thereof” (priority 2016, dated 2024)

Experiments:
[1] = system: MDA-MB231 tumor xenografts; conditions: for Competition of kidney uptake by coadministered unlabeled conjugate: 100-fold excess unlabeled conjugate
Method: Animal Husbandry and in vivo tumor implantation. Female athymic nu/nu mice were purchased from Harlan laboratories. The animals were housed in a sterile environment and kept in 12 h light/day cycle. The animals have free access to rodent chow and water. 2×10^6 MDA-MB23 cells were suspended in 100 microliters of sterile phosphate buffer saline and injected subcutaneously into the right flank of each mouse.
In vivo imaging and biodistribution. All the animal experiments were conducted in accordance to the guidelines approved by Purdue Animal Care and Use Committee. The experiment was initiated once the tumor volume reached approximately 300-400 mm^3. Tumor volume was measured as 0.5×L×W2, where L is the longest axis and W is an axis perpendicular to L in mm. In the lateral tail vein, the mice were injected with 150 μCi of the radioactive conjugates (either in the presence or absence of excess of the unlabeled conjugates.) in 100 μl of sterile phosphate buffer saline For imaging mice were euthanized 2 h post injection by CO2 asphyxiation and imaged using Kodak Imaging Station. After imaging necroscopy was performed on animals to remove selected tissue and weighted. Tissue bound radioactivity was quantified by using gamma counter (Packard Gamma Counter) For time course study, the animals were sacrificed at following time points post injections: 2 h, 4 h, 6 h, and 8 h. Tissue of interest was weighed and the tissue bound radioactivity was counted by using gamma counter. Count per minute values of tissues bound radioactivity was decay corrected and converted into percentage injected dose per gram if the tissue (% ID/g). The data was analyzed by using GraphPad Prism.
In vivo whole body imaging and biodistribution of JL-L1A, JL-L2A and JL-L3A. In order to investigate the uptake of radioactive conjugates in LHRH-R positive tumors all the three conjugates (150 μCi) were injected the lateral vein of mice with MDA-MB231 tumors. For competition studies the mice were additional injected with 100-fold excess of the unlabeled conjugates. MDA-MB231 tumor bearing mice were injected with the ^99mTc chelated conjugates in their lateral tail vein (mice labeled as treated). Another group of mice were injected with the ^99mTc labeled molecules but in the presence of excess of the unlabeled conjugates. Images were taken 2 h post injections. FIG. 17A represents whole body imaging of JL-L1A whereas FIG. 17B and FIG. 17C represents the whole body imaging of JL-L2A and JL-L3A respectively. (n=5).
The further investigate the retention of 99mTc chelated JL-L3A, the radioactive conjugate was injected in mice with MDA-MB231 xenografts. After euthanizing the. Animals at 2 h, 4 h and 8 h post injection they were imaged and radioactivity associated with organs of interest was counted. […] MDA-MB231 tumor bearing mice were injected with the ^99mTc chelated conjugates in their lateral tail vein (mice labeled as treated). Another group of mice were injected with the ^99mTc labeled molecules but in the presence of excess of the unlabeled conjugates. Radioactivity of all the major organs and blood were determined 2 h post injection and the percentage injected dose per gram of the tissue was plotted. FIG. 18A represents biodistribution of JL-L1A whereas FIG. 18B and FIG. 18C represents the biodistribution of JL-L2A and JL-L3A respectively (n=5). Error bar indicates standard deviation.

LHRH-R = target: T1, LHRH-R (Homo sapiens, UniProt P30968); assay: In vitro binding assay of 99mTc radioactive conjugate by cell bound radioactivity; conditions: MDA-MB231 cells
T1 construct: LHRH-R positive breast cancer cell, MDA-MB231; endogenous in cells; host or cells: MDA-MB231 breast cancer cells
T1 sequence (P30968 1-328): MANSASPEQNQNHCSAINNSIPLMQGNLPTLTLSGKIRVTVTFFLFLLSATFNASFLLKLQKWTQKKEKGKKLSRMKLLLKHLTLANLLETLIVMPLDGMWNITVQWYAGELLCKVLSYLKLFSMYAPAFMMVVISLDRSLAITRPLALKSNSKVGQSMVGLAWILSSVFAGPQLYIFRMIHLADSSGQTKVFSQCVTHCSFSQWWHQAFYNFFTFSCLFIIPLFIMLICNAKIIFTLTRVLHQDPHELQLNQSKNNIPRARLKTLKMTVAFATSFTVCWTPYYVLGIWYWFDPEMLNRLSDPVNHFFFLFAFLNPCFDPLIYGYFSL
Method: In vitro binding assay. MDA-MB231 cells were seeded in 24 well plate and allowed to form a monolayer. […] The cells were incubated for 2 h at 37° C. and then rinsed three times with medium. After rinsing cells were dissolved by adding 0.5 ml of 0.25N NaOH to each well for 20 minutes. The cell bound radioactivity measured by using Packcard gamma counter and the Kd was calculated using the graphpad prism by plotting the cell bound radioactivity against the concentration of radiotracer. […] Solid circle indicates ^99mTc chelated conjugates whereas open circle indicates competition.
To determine the binding affinity, the MDA-MB231 cells were incubated with various concentrations of the radioactive conjugate JL-L1A either in the presence or absence of the unlabeled conjugate for 2 h at 37° C.

MDA-MB231 cells = type: cell-based, human; conditions: free drug, 2 h exposure + 66 h, 3H-thymidine incorporation; read-out: IC50
Method: (§1) In vitro determination of cell viability. MDA-MB231 and SKVO3 cells were seeded at a concentration of 10,000 cells per well on a 24 well plate and allowed to grow in monolayers. […] After incubating for 2 h at 37° C., cells were rinsed three times with fresh medium and then incubated in 0.5 ml fresh medium for an additional 66 h at 37° C. Sent medium was then replaced with 0.5 ml of medium containing ^3H-thymidine and incubated for additional 4 h. Cells were then again washed three times with the fresh medium and then incubated with 0.5 ml of 2.5% trichloroacetic acid for 10 min at room temperature. After removing the trichloroacetic acid, cells were dissolved in 0.25 N NaOH. Cell viability was determined by counting the incorporation of ^3H-thymidine in cells using scintillation counter (Packard, Packard Instrument Company). The IC50 value was derived from a plot of the percent of ^3H-thymidine incorporation versus log concentration using Graph Pad Prism 4.
(§2) In vitro cytotoxicity of tubulysin B hydrazide conjugate: To inspect the killing efficiency of the therapeutic conjugate, MDA-MB231 and SKOV3 cancer cells were incubated with various concentrations of JL-L3-TubBH either in the presence or absence of excess JL-L3, for 2 h at 37° C. After washing off the excess conjugate, the cells were incubated in fresh media for an additional 66 h followed by incubation with media containing ^3H-thymidine to assess cell viability. Radioactivity was counted using PerkinElmer's scintillation counter. The same procedure was repeated after exposing the cells to the free tubulysin B hydrazide.

SKOV3 cells = type: cell-based, human; conditions: free drug, 2 h exposure + 66 h, 3H-thymidine incorporation
Method: as §1, §2

SMILES: Cc1c(-c2cccc(CCC(=O)NCCCCCCCC(=O)N[C@H](CCC(=O)NC[C@H](O)[C@@H](O)[C@H](O)[C@H](O)CO)C(=O)N[C@H](CCC(=O)O)C(=O)N[C@H](CCC(=O)NC[C@H](O)[C@@H](O)[C@H](O)[C@H](O)CO)C(=O)NC[C@H](N)C(=O)N[C@@H](CC(=O)O)C(=O)N[C@@H](CS)C(=O)O)c2)c(=O)n(C[C@H](N)c2ccccc2)c(=O)n1Cc1c(F)cccc1F (99mTc complex, metal not drawn) [JL-L3A]
- Kidney and liver uptake ([1]; 99mTc conjugate): non-specific
- Competition of kidney uptake by coadministered unlabeled conjugate ([1]; 2 h post injection): not competed
- Kidney uptake ([1]; 150 μCi, 2 h post injection): highest uptake in the kidney
- Spleen uptake ([1]; 150 μCi, 2 h post injection): only minimal activity
- Biodistribution compared among the three conjugates ([1]; 2 h post injection): most favorable biodistributions
- Tissue distribution at 4 h and 8 h post injection ([1]; compared with 2 h post injection): same pattern as 2 h post injection
- Tumor radioactivity intensity at 8 h relative to 2 h post-injection ([1]; time-dependent imaging, 2 h, 4 h, 8 h): less than half of the intensity at 2 h post-injection

SMILES: Cc1c(-c2cccc(CCC(=O)N[C@@H](CCC(=O)N[C@H](CCC(=O)NC[C@H](N)C(=O)N[C@@H](CC(=O)O)C(=O)N[C@@H](CS)C(=O)O)C(=O)O)C(=O)O)c2)c(=O)n(C[C@H](N)c2ccccc2)c(=O)n1Cc1c(F)cccc1F [JL-L1A]
- Tumor uptake ([1]; 150 μCi 99mTc conjugate i.v., 2 h post injection, with/without 100-fold excess unlabeled conjugate): highest uptake in the tumor
- Uptake in other organs ([1]; 150 μCi, 2 h post injection): uptake in other vital organs

SMILES: Cc1c(-c2cccc(CCC(=O)NCCOCCOCCOCCOCCOCCOCCC(=O)NC[C@H](N)C(=O)N[C@@H](CC(=O)O)C(=O)N[C@@H](CS)C(=O)O)c2)c(=O)n(C[C@H](N)c2ccccc2)c(=O)n1Cc1c(F)cccc1F [JL-L2A]
- Competition of kidney uptake by coadministered unlabeled conjugate ([1]; 2 h post injection): not competed
- Kidney uptake ([1]; 150 μCi, 2 h post injection): highest uptake in the kidney
- Spleen uptake ([1]; 150 μCi, 2 h post injection): significant non-specific uptake in the spleen

SMILES: Cc1c(-c2cccc(CCC(=O)NCCCCCCCC(=O)N[C@H](CCC(=O)NC[C@H](O)[C@@H](O)[C@H](O)[C@H](O)CO)C(=O)N[C@H](CCC(=O)O)C(=O)N[C@H](CCC(=O)NC[C@H](O)[C@@H](O)[C@H](O)[C@H](O)CO)C(=O)NC[C@H](N)C(=O)N[C@@H](CC(=O)O)C(=O)N[C@@H](CS)C(=O)O)c2)c(=O)n(C[C@H](N)c2ccccc2)c(=O)n1Cc1c(F)cccc1F [JL-L3A]
- Kd (LHRH-R; 99mTc chelated conjugate, 2 h at 37° C.): 14400 pM
- Cell-bound radioactivity under competition (LHRH-R; presence of excess of competing ligand): diminished

SMILES: CCCC(=O)OCN(C(=O)[C@@H](NC(=O)[C@H]1CCCCN1C)C(C)CC)[C@H](C[C@@H](OC(C)=O)c1nc(C(=O)N[C@@H](Cc2ccc(O)cc2)C[C@H](C)C(=O)NN)cs1)C(C)C (stereo partly shown) [tubulysin B hydrazide, Tubulysin B hydrazide, reference compound]
- IC50 (MDA-MB231 cells): 67 pM
- IC50 (SKOV3 cells): 5 pM
